Test results published in the DeepSol protein solubility set.

experiment: soluble on expression in E. coli; label from the status in PepcDB or PDB records

Soluble on expression in E. coli, not soluble:
MGSDKIHHHHHHMIKILVDNTAYKKFFAQHGFSALIEINNKRILFDAGQNSITLRENLRLFNEKEGFDYIVLSHGHYDHCDGLKYVIENDLINGKVIAHKDAFLDKYAGNRYIGIDEEIKEYLLKKADLEIIEEPYKIDKDIIVSGYVPREYEYEMEEFQCIKDGKRVKDEVNDDMFLIAKGILITGCSHSGIINVVEYGKKLSEIKGVLGGFHLVGVSDNYLNRIVDYFKSQDFWIMPMHCTGFKALTKLSQLNNFVYGHVGKIIGI
MGSDKIHHHHHHMIKWRDGKLGLPIKEAVELFPELKNFLDEKGRLDFSNREARILYNKAVAKVLFDLDIEYHPKGLVTPPISRYIFLKTFLRGGEKVLEIGTGHTALMSLIAEKVFKCDVTATELDNEFYSYAKLNIARNNSRIKLLKSSGGIIRGVVPRGERFDVIFSAPPYYEKHSGGVLTEREALGGGKFGEEFSIKLLNEALDYLNAGGKVALFLPHKRDLLNAIKMKGIRLGYEVRDILFKVGTRKRHSLILTV
MGSDKIHHHHHHMILDTLENLAHYTHLGPRIAKALQHLKETDFTQLPVGNYELEGKDIFVIVNDYETKPREVEPFEVHRKYIDVQYVVSGEEEFGYLPLADQTPSKPYYDKHDYAEFDYESNKARAAFIPFKAGMFALFFPQDMHMPGVSATPQKVRKVVIKVKI
MGSDKIHHHHHHMILKYAPLNLDQKFSLVYFRMTHDNCWSKITEKHDVMIHTLKLLPNKDRDIIYGLFELKVKGKRTLRDFLRDLNRSGTIRKLGGLSISELKSNIYIIDLYETYSGMIQGKLNDYNSIFDFDLVKYGVEEKYAVIPSENVNELKNELQSMGQLFDFRAKYFPNFYEVLTPYFNFTPIEMQIIIEAYNLGYYDIPRRAGIREIAEYFGLSKSTVQEYIRNAESKTMSNMKLFRMLNELKRL
MGSDKIHHHHHHMILRKKKSLNAGPINGTGEGVAHSKRWYVALVRMHHEKKVSEHLDKMGIENFVPVQQELHQWSDRRKLVTSVLLPMMVFVHADPKERMEVLSFSTVSRYMVMRGESSPAVIPDEQMARFRFMLDYSEESISMNSSPLARGEKVRVIKGPLTGLVGELVNVDGRSKIAVRLNMLGCACVDMPVGYVEPIMAAV
MGSDKIHHHHHHMILTVTASPYLLSTNELDGTIEIGEANKIRQVSTVAGGFGTGVAATLFYGGNETFAVFPAPEISHYMRLVTFAGLPHEIIPVAGPIPMHLTMRDAEGNETKFKDSPMPLDVSQLAILRDLVVRRAEDAAWVLLGGNLPSIAPAAWFVDVVRSLRLYHPHVKVAIAATGAALRAVIRQLAATSPDALIVAAEEIEIATGLEPKTLRGPWVEGDLSPTVAAARALIDSGVTEVLVTNKRTESLYVSESESLLASYDSTPGKQGVNWRESFTAGFLAASNDGKSTEDSVINAVAYANAEGSEWDNYIPTPDKLRAEHVVIKSL
MGSDKIHHHHHHMILVLFYRTTKSHQTHSRHMSVNTTELSIEIIDIVSDRDGARLRDIVEEVDVAKSTAHKHLTTLRDSGFLVKRGEIYQVGLRFLNYGEQARSRWPGYPHIEEAIAALTERTEEECDFVAPDRGRVITIAESYHKWAKFEGTTTDGPSKEYRARTGSYYHMHATASGLAVLSTYSKSRVEDVIERWGLPARTDHTITSREELHAELEQIRERGYAVDDQGYTDGMRSIGKAVHGPEGDVIGALSVSGPTYRVDGMVLEQEVPNALRDVVDELEERLRTTN
MGSDKIHHHHHHMINIGLTGWGDHYSLYEDLERQTDKLKTYAGHFPVVELDATYYAIQPERNILKWIKETPDTFEFVVKIHQALTLHADYKTFADTRQELFDQFKNMLEPLHTQKKLAMVLVQFPPWFDCNAQNIKYILYVRQQLQAFPMCVEFRHQSWFSDAFKEQTLAFLTEHQIIHAVVDEPQVKDGSVPLVNRITNEIAFVRYHGRNHYGWTKKDMSDQEWRDVRYLYDYNEQELIDLAQKAQILAQKAKKVYVIFNNNSGGHAANNAKTYQRLLNIEYEGLAPQQLKLF
MGSDKIHHHHHHMINLEKYRIDLNEKKSTKYIQIFNHIKELIINKELVEHEKLPPIRKLSNFLQVNNTTIVKVYELLENEGYVYKIIGSGTFVSSLNSYKSGIDNRKNKIIVQREDLIHFDNGNPSNDMFPIDSFKNAVNMALSKDGSSIFEYDEGLGSEELREKMVEYLSDGNIKTTKENIQIISGAQQGIDIVCKGLISYSDVVFMEEPSYNGAIEVFKSRGAKIISIPMLDDGIDIGILKLKLEKIKPRLIYIMPNFQNPTGISYSTYKKKKLIELAEEHDFYIIEDDFISDFVFESKDNRTIRSYDDKNRVVYIKSFSKILMPGLRIGIVEMPNELLKKVLWAKYSSDISTPGLIQKSMYYYMNNFDWKNYLSHIEKIYTDKYKLAKNLINDKLSGKLKVRKSCGGINFFLELPRGYTSQAFTNFMLNKGVSMLPGTYFFDNLVDDRFFRINIARPSMEELEKGISIISDNIDEFFCEYKNKLDIKSNKLFY
MGSDKIHHHHHHMIQTYILKIQSLKWAQREMLKTTLITDTLGHVTSTEPTTTAHVPLPDGSSTPVQIWASDNKDSQLVMLWPGFGMGGYYYRPLAAALNKAGFHVAIGELRGQGQSSAKASRKSQWGYHDLASVDFPLQIAAAKKALDLEEGHPMRFLSHSMGGQISCLFAARPEAEKYNLRAIFGVGAGSPFRPTFSPKMGKRLGLGAVLLGGIGGHIVGFWPGKVLGKDLVGYGRQSGTHMREWRRFHKHNSLDDLTAQDINYVEVMKKVSIPITFSRCPDDEDCPQASIDGLASFVPAAQIKMIEIPEALGHNRWAREPESTVKLFLEQAL
MGSDKIHHHHHHMIRETRQIHVGNVAIGGGAPCSVQSMCNTDTRDVAATLSQVLSLSSAGCEIVRCAVPDMAAAEALGEIKRQSPIPVIADIHFDYRLALRVLEGGIDGLRLNPGNIGERWKVEEVVKAARERLVPIRIGVNAGSLEKELLEKYGHPTAEAMVESALGHVRILEDIGYDQIKISLKASDVMKTVEAYRLLAQKVDYPLHIGITEAGTIFSGTIKSSVGLGILLADGIGDTMRVSLTGDPVDEVRVGFEILKALGLRQRGINFVSCPTCGRCQINLIGVAQEVENRLAAIDTPLTVAVMGCVVNGPGEAREADVGIAGGKGEGLLFRHGEIVRKVPEAEMADALIAEVEQMAKEKTHS
MGSDKIHHHHHHMIRFHIQADSDIPASTQLYNQIHFAIASRQYPPGHKLPSTRQLAMQTGLHRNTISKVYRLLEEDGVVEAQAGSGIYVRGGNDPRETAKSQRLRKQYPDIDQQIRDHIDTLLQQGCSLAEIRELFLAEVDWRLRCSASVLVTAPLQDLGAAELMYRELSQALGVPVEVVPLEELGAILKQKDSGTVVTSHYFFQDAEAITASLGARTIALDLYDYREELSFLSQQKEGSCIGIVSISPGILRAAEIIIHSLRGEALLIMSCQPNDQTKLEAMLRSASVIICDQSSIDNVKQRVSAIRDDLIRLPRLLCSKSYISEASIALLKRELGLN
MGSDKIHHHHHHMISASTLNSELINKIAQDFAQATSLAVVVVNIHGDEISELFNFTPFCQLMRQHPEHSGRCRMSDRCGGLEASKKDQLCIYRCHAGLTDFSIPLVIAGHLVGFVLCGQVRLSNDVELVDILNVDDRWQDDPALVQAFRDVPEMDYSRVIASADLLKLIVENCLKKQLNFVVIKDNPSQNDPAQASRAPSPHDGKMKKALRYIDAHLSDELRLEDVAAHVYLSPYYFSKLFKKYQGIGFNAWVNQQRMASAKELLCHSDWSIASIARNLGFSQTSYFCKVFRQTYQVTPQAFRQQINAGSQTESF
MGSDKIHHHHHHMITIVKKVRNEIIRKIYRIPLFSNTADIAYQTAITQHTNHLPYLADSDLSLVKNLQEEGIVITSLTELSIPSTMEMLQAAKLLKTKIPINIAGNQNEFTVHASSEQIREHSSIFFWGLQERLLNIVENYLGLSVAYHGAYFRRDINNQVRKKSRLWHLDKEDRKMLKIIIYLNDVNEDGGPFEYIPKSLTSHISKSLKYDDTYIKDETMDQVVSSSYWQPCTGKSGAVIFVDTANIFHRGKLPLSSDRLSIFFDYTTRQPKHPFYCKSSLSNKDLLAVSAELSENQKQCIFWQHNYN
MGSDKIHHHHHHMITNTHLLISYIVYKNLYNNFNFKLDMAAFALGNIKPDFINKEIKCSHTLNESLDSLIEYSNKLVKYNNSIRKFSLALGIVCHYICDYFCIYHRDGNEKKGILEHLIYEVKLDSNFTMMFLKGKLNYFGCRDYGGSIKKIIFNIEKEYKLEEKDFKRDIKYALFAAIESSKFIVYSSKLYGN
MGSDKIHHHHHHMIVETMTMVEFEEGLKRTRTVFVPFGSVEEHGCHLPLSTDTIQAYEVGKKAALQISLFVAPPIHYGSCRSTSCHPGTISITTATLKCLMKDIVRSLYAQGMRNFIILTGHAGGSHRMALQDAGEELLPEIPDIRIAVVTEYELASREGKGIIETEGDAHAGEIETSRILHTHPHLVQGRGEREFPSFPTGILVRNKRKYWPNGVWGDPAKATAEKGKRLEELVVKKIVELAAALEQFQE
MGSDKIHHHHHHMIYMIIHKFIIHVLDKNSDVPILNDFEGKVNQEVDGFFQKAIKRIAKDEDLRKGVFKDYNDNLIKNCCEQIIYDESTFLKNSKEIASYLFDVMKINAALESCDLAICLYTIKDEKSVAILKLDYKKLYTHSIEFVDDKFNIQMVSNEIGIPETLRQKQGALISLSGINDEFHLRLLDKDAEKEGSESKFVTEFLNAKKIDDDKYKTKVFKNTAENWITNALSNDIKQAEDVRSILNYTLKEKHEVDINDFVDNSIKDDELKDSFKEHMEEKGLDESFSIDKKWVEKKLKKRSIKTDNGFDIKGNLTDFEDPMKYTVKQNQDGTIDIIIKNVTFYEEK
MGSDKIHHHHHHMKAFDRDASEPRIGLAYGPGMAEFAARNAHLVDYIEVPFEQLRFSPAVAELQQTIPFVLHCASLSVAGFVPPDDSTVDAIERTAVQTGTPWIGEHLAYISADPVGEALGGTGEPTSLSYTLCPQLSDETVRRVVDNLAALRPHFPVPLIVENSPQYFPIPGSTMGMTDFIRAITDRCDVGLLLDLSHFLITAHNTGAEVHRELARLPLERVVEVHLSGMSVQSGTAWDDHSLPASPILFELLERLLDVARPRALTFEYNWSPYFPLSVLTTHIERARQLMGLA
MGSDKIHHHHHHMKASIEQLEPYVPEKPLATLQAELGLTELVRLSANENPYGTSPKVATAVKNWDFTQSNRYPDADAQELRQAVAQQQGIDPNSIVFSVGLDEMIVMLSRTFLATNDQVLVSAPTFSEYGLHAEIEGGQLISVPTLPNDHVNFEGLMKAITPHVKMVWLCNPNNPTGTVESLAAIEAFVQQVPPETMVLIDEAYIDFTPGAAQVTAMQLPAKYPNVVVMRTFSKAYGLANFRIGYAVFNTKYAATMQTIRLPYNVNSLAQVAALAAIDDPNFVKQTVQKNATERAKWMAFFDDQGVTYDQSGANFIFFKYPSATQLADYLVHHGYLIRTGLRPGWLRLTVGTANDNQQLQQLIREFKA
MGSDKIHHHHHHMKDVMFYFEIHQPFRLRPTNLYDVKSEQNVFWDEKNEEIFRRVAERSYIPATRNLMEYGIKSSFSITGTAVEQALMYNTKVIDAIDDYVKSGLCEMLSETYYHSLASIWNYDEFKRQVDMHRDLMKRIFNVVPKVFRNTELIYDDRIAEMVKRMGFTSIITEGTDSIVKDHSPNYRYASPSGLNLYLRNYVMSDNISFRFSNTKWKDYPLTADKYAKWINESEGDMVNLFMDYETFGEHQTQETGIFDFMKYLPVYFRDYGIETITISEAEKRHRVKDVLSIPETISWADTRRDLSAWLENEMQIDTFDRIKKCREKAGRLWGYLQTSDIIYYMSIGLEQDFTVHEYFNPYKSPYLAFIYTNYALDKICGSSYGKNEI
